Measured values from doi:10.1101/2025.07.29.667502, “Single-Molecule FRET Reveals Two T4 Phage MR Complex Exonuclease States Regulated by the Mre11 Dimer Interface” (bioRxiv, 2025).

Target: T1, T4 Rad50 (wild type) (bacteriophage T4, UniProt P04522 1-560)
T1 construct: Rad50 (gp46) of bacteriophage T4; the introduction says that the T4 complex is purified without truncation of Rad50's coiled-coil; also called WT Rad50; gp46; source: E. coli BL21 (DE3), purified (nickel column)
T1 sequence (looked up): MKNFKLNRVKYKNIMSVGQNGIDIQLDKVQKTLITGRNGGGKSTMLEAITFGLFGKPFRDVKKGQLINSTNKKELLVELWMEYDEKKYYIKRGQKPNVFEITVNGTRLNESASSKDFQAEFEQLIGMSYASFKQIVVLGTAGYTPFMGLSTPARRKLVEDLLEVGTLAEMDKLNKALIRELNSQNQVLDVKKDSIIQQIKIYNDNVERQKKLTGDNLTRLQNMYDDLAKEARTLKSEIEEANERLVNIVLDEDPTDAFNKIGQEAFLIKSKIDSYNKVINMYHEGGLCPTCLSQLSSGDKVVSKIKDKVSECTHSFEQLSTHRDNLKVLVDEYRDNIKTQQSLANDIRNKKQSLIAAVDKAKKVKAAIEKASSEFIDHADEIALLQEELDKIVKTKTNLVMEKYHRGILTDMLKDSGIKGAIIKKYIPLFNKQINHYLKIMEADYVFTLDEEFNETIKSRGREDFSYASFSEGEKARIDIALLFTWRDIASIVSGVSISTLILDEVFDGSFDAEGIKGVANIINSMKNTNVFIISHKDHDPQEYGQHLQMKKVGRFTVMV
Assay: negative-stain EM; WT T4-MR complex with ATPγS, in the absence of DNA
Conditions: both partners purified

B1: T4 Mre11 (wild type) (enzyme, bacteriophage T4, UniProt P04521 1-339, looked up)
chain: MKILNLGDWHLGVKADDEWIRGIQIDGIKQAIEYSKKNGITTWIQYGDIFDVRKAITHKTMEFAREIVQTLDDAGITLHTIVGNHDLHYKNVMHPNASTELLAKYPNVKVYDKPTTVDFDGCLIDLIPWMCEENTGEILEHIKTSSASFCVGHWELNGFYFYKGMKSHGLEPDFLKTYKEVWSGHFHTISEAANVRYIGTPWTLTAGDENDPRGFWMFDTETERTEFIPNNTTWHRRIHYPFKGKIDYKDFTNLSVRVIVTEVDKNLTKFESELEKVVHSLRVVSKIDNSVESDDSEEVEVQSLQTLMEEYINAIPDITDSDREALIQYANQLYVEATQ
notes: Mre11 (gp47) of bacteriophage T4; Used together with WT Rad50 as the WT-MR complex; also called WT Mre11; gp47; source: E. coli BL21 (DE3), purified (chitin column)
binding result: binds
